Data as given in patent US20250009876A1 (H LUNDBECK A S, published 2025).
Changes are numbered by the printed parent chain. Where two headings read alike, the source gives them in different places.

T1: PACAP27 (Pituitary Adenylate Cyclase-Activating Polypeptide, 27 amino acids) (human, the C-terminal leucine is amidated)
T1 construct: also called human PACAP27
T1 peptide: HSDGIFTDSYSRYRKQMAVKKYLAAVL

T2: PACAP38 (Pituitary Adenylate Cyclase-Activating Polypeptide, 38 amino acids) (human, not fully specified; the C-terminal lysine is amidated)
T2 construct: In the HTRF and PC-12 cell assays the peptide was N-terminally or C-terminally biotinylated; unlabelled in SPR; also called human PACAP38; huPACAP (1-38)
T2 peptide: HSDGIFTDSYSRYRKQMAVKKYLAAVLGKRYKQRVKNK

T3: VIP (Vasoactive Intestinal Peptide) (human)
T3 construct: also called human VIP
T3 peptide: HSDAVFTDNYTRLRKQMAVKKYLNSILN

T4: PAC1-R on PAC1-R-expressing PC-12 cells (UniProt P32215 20-523)
T4 construct: whole, on cells; also called PAC1 receptor
T4 sequence (looked up): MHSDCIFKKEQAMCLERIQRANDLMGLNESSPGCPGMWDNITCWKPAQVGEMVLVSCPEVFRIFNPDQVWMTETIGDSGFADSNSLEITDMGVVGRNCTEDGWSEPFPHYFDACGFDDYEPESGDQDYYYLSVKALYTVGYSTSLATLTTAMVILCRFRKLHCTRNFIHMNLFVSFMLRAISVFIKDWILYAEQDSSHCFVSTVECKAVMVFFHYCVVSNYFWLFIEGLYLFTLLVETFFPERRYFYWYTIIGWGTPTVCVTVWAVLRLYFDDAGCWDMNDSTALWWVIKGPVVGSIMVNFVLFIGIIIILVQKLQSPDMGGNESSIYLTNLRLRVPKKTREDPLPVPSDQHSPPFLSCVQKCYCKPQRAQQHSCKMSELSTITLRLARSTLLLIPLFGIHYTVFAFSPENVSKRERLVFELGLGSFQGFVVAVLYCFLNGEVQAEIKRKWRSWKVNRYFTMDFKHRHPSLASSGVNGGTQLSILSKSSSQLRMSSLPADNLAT

B1: Ab10.H3 (antibody, human IgG1, kappa, N297A)
heavy: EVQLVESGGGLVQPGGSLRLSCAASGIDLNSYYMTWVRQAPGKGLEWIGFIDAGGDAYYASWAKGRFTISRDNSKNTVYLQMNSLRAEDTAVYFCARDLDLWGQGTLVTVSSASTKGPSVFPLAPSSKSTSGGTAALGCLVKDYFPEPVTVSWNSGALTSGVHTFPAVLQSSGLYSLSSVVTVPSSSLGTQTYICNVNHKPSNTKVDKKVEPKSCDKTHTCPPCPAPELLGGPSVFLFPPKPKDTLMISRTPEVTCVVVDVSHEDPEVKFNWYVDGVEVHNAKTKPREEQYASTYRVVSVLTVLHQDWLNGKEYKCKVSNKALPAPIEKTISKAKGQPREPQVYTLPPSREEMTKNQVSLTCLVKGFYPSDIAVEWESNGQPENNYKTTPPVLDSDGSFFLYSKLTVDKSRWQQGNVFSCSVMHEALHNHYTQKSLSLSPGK
light: DIQLTQSPSTLSASVGDRVTITCQSSESVYGNYLAWFQQKPGKAPKFLIYEASKLESGVPSRFSGSGSGTEFTLTISSLQPDDFATYYCAGGDISEGVAFGGGTKVEIKRTVAAPSVFIFPPSDEQLKSGTASVVCLLNNFYPREAKVQWKVDNALQSGNSQESVTEQDSKDSTYSLSSTLTLSKADYEKHKVYACEVTHQGLSSPVTKSFNRGEC
notes: Full-length humanized variant of Ab10
B2: Ab21.H (antibody, human IgG1, kappa, N297A)
heavy: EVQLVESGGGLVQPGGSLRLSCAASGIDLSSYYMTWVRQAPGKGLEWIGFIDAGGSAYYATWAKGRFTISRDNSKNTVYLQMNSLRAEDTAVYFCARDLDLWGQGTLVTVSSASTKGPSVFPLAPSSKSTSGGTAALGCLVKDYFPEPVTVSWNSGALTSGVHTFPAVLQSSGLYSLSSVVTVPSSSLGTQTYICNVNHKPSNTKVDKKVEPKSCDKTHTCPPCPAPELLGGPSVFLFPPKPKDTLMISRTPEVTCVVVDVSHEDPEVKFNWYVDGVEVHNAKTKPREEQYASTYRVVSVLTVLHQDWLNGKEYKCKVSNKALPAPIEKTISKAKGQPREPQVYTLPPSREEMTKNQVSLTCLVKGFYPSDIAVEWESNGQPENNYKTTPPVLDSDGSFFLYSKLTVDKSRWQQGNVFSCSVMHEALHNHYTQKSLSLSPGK
light: B1 light with I2A, Q24K, N32D, F47Q, E51D, K54T, E56A, D93Y, I94V, E96A
notes: Full-length humanized variant of Ab21
B3: Ab21 (antibody, human IgG1, kappa, N297A, V domains shown)
VH: QSVEESGGRLVTPGTPLTLTCTVSGIDLSSYYMTWVRQAPGKGLEWVGFIDAGGSAYYATWAKGRFTISKASTTVDLKITSPTTEDTATYFCARDLDLWGPGTLVTVSS
VL: AAVLTQTPSPVSAAVGGTVSISCKSSESVYGDYLAWFQQKPGQPPKQLIYDASTLASGVPSRFKGSGSGTQFTLTISGVQCDDAATYYCAGGYVSAGVAFGGGTEVVVKR
notes: Full-length anti-PACAP antibody; rabbit/human chimeric

How the values were obtained:
[1] = biological target: T1, PACAP27 (Pituitary Adenylate …); experiment: SPR (ProteOn XPR36), antibody amine-coupled, peptide analyte, 1:1 Langmuir fit
Method: (§1) Binding affinities of monoclonal antibodies for human PACAP were estimated using SPR on the PROTEON™ XPR36 (Bio-Rad, Hercules, CA). Antibody was immobilized to the surface of general amine coupling (“GLC” or “GLM”) Chips (Bio-Rad, Hercules, CA). […] Antigen (ranging from 1.23 nM to 100 nM) was typically run sequentially with association times of 2-4 minutes and dissociation times of 3-120 minutes grouped with the PROTEON™ Manager Software (v3.1.0.6 (Bio-Rad, Hercules, CA)) and fitted using a 1:1 Langmuir binding model. Surfaces were regenerated between analyte queries using 0.85% Phosphoric Acid.

[2] = biological target: T2, PACAP38 (Pituitary Adenylate …); experiment: as above
Method: as §1

[3] = biological target: T3, VIP (Vasoactive Intestinal Peptide); experiment: as above
[4] = biological target: T1, PACAP27 (Pituitary Adenylate …); experiment: inhibition of 0.1 nM 125I-PACAP27 binding to membranes with human PAC1-R long isoform, filter binding
Method: To identify antibodies that block PACAP27 binding to PAC1-R, antibodies at an initial concentration of 30 nM were diluted in incubation buffer (50 mM Hepes pH 7.4, 1 mM CaCl₂, 5 mM MgCl₂, 0.2% BSA) and serial 1:3 dilutions were performed. Antibody dilutions (30 nM, 10 nM, 3 nM, 1 nM, 0.3 nM, 0.1 nM, 0.03 nM, 0.01 nM, 0.003 nM and 0.001 nM) were then mixed and pre-incubated at 25° C. for 30 minutes with 0.1 nM of ¹²⁵I-labelled PACAP27 in incubation buffer. The antibody: ¹²⁵I-labelled PACAP27 mixture was then added to 0.5 μg aliquots of cell membranes derived from Chem-1 cells expressing human recombinant PAC1-R long isoform in incubation buffer. The mixture was then incubated for 1 hour at 25° C. Following incubation, the samples were filtered and washed. Afterward, the filters were counted to quantitate ¹²⁵I-labelled PACAP27. As an experimental control, non-specific binding to the cell membranes was estimated using 0.1 μM of […] PACAP27.

[5] = biological target: T2, PACAP38 (Pituitary Adenylate …); experiment: cell-based or functional assay
[6] = biological target: T2, PACAP38 (Pituitary Adenylate …); experiment: cell-based or functional assay
[7] = biological target: T4, PAC1-R on PAC1-R-expressing PC-12 cells; experiment: cell surface binding assay (DELFIA TRF): antibody pre-incubated with PACAP38, added to PAC1-R-expressing PC-12 cells, detected with Eu anti-human IgG
Method: Cells were initially seeded at 1×10⁵ cells/well in a solution of complete RPMI (“cRPMI”: RPMI medium supplemented with 10% sterile heat-inactivated FBS and 1% sterile antibiotic/antimycotic)+10% FBS, and the plates were allowed to incubate overnight at 37° C. On the day of the binding assay, antibodies at an initial concentration of 15 μg/ml were diluted at a 1:3 ratio in DELFIA® binding buffer (50 mM Tris, 150 mM NaCl, 0.1% azide, 2% horse serum) (Perkin-Elmer, Waltham, MA) to a total volume of 60 μL in a separate 96 well round bottom plate. PACAP38 was prepared for the binding assay by diluting it in DELFIA® binding buffer to a concentration of 200 nM, and then 60 μl of the diluted PACAP38 was added to each of the antibody-containing wells to form antibody: antigen complexes. Following addition of PACAP38, the antibody: antigen complexes were incubated at room temperature on a shaker for 1 hour. Separately, the PC-12 cells were prepared for addition of antibody: antigen complexes by washing the cells two times with DELFIA® wash buffer (50 mM Tris, 150 mM NaCl, 0.1% Azide) (Perkin-Elmer, Waltham, MA). After washing the cells two times and following the 1 hour room temperature incubation of the antibody: antigen complexes, 50 μl of the antibody: antigen complex was added to each well containing cells. The mixtures of cells and antibody: antigen complexes were then incubated for 30 minutes at room temperature. Following this 30 minute incubation, each mixture was washed two times with DELFIA® wash buffer (Perkin-Elmer, Waltham, MA).
DELFIA® Europium labeled anti-human IgG detection reagent (Cat #1244-330, Perkin-Elmer, Waltham, MA) was diluted to a concentration of 300 ng/ml in DELFIA® Binding Buffer. Following dilution, 50 μl of the anti-human IgG detection reagent was added to each well containing cells, and a 30 minute incubation at room temperature followed this addition of IgG detection reagent. After completion of the 30 minute room temperature incubation, the cells were then washed two times with DELFIA® wash buffer. Next, 50 μl of DELFIA® Enhancement Solution (Cat #1244-105, Perkin-Elmer, Waltham, MA) was added to each well containing cells for a final 15 minute room temperature incubation with shaking. The plates were then read (TRF, excitation 330 nm, emission 620 nm) on a SPECTRAMAX® (Molecular Devices, Sunnyvale, CA) plate reader.

[8] = biological target: T1, PACAP27 (Pituitary Adenylate …); experiment: cell-based or functional assay
[9] = biological target: T2, PACAP38 (Pituitary Adenylate …); experiment: cell-based or functional assay
[10] = biological target: T1, PACAP27 (Pituitary Adenylate …); experiment: cell-based or functional assay
[11] = biological target: T2, PACAP38 (Pituitary Adenylate …); experiment: cell-based or functional assay
[12] = biological target: T2, PACAP38 (Pituitary Adenylate …); experiment: inhibition of 30 nM biotinylated PACAP38 binding to PAC1-R-expressing PC-12 cells, Eu-streptavidin TRF
Method: To identify antibodies that block PACAP38 binding to PAC1-R-expressing cells, adherent PC-12 cells (ATCC, Manassas, VA) expressing PAC1-R were used in a Europium-based PAC1-R-expressing cells binding assay. Antibody solutions were incubated with N-terminal biotinylated PACAP38 at 10× the final concentration (100 nM or 30 nM) for 1 hr, then added to PC-12 cells that were plated 24 hrs prior in black clear bottom 96 well plates (COSTAR™, Corning Incorporated, Corning, NY) and further incubated for 1 hr at room temperature. After three washes, the cells were incubated with 20 μl Europium-labeled streptavidin (PerkinElmer, Waltham, MA) for 1 hr at room temperature. Cells were washed three times, then 20 μl DELFIA® Enhancement solution (PerkinElmer, Waltham, MA) was added to each well and incubated for 15 minutes with gentle shaking. Plates were read (Time Resolved Fluorescence (“TRF”)) on SPECTRAMAX® (Molecular Devices, Sunnyvale, CA) plate reader.
FIGS. 14A-14H are representative of the inhibition curves obtained by this method (results are shown for Ab10, Ab20, Ab21, Ab1.H, Ab10.H, Ab21.H, Ab22, and Ab23, respectively) wherein the PAC1-R expressing cells were PC-12 cells.

[13] = biological target: T2, PACAP38 (Pituitary Adenylate …); experiment: HTRF binding assay, antibody dilution series on 35 nM biotinylated PACAP38
Method: In parallel, 10 μl of an antibody dilution series (highest final concentration of 100 nM) were incubated with 10 μl of N-terminal or C-terminal biotinylated PACAP38 (35 nM final) alone, or in combination with either PACAP27 (350 nM final) or VIP (350 nM final), i.e., 10× PACAP27 or 10× VIP, respectively, in a HTRF plate. 20 μl of Eu³⁺ cryptate labeled anti-hu Fc donor and 20 μl of d2-labeled streptavidin acceptor were added to each well and incubated for 1 hour at room temperature. Fluorescence was measured at 620 and 665 nm with a delay of 300 usec.
EC₅₀ values, i.e. the concentration of an antibody that yields a response halfway between the baseline and the maximum value within a specified time period, were computed for each antibody based upon their binding curves and are shown in Table 1 below. […] A humanized form of antibody Ab1 identified by an appended “.H”, i.e., Ab1.H also bound PACAP38 with high affinity.

[14] = biological target: T3, VIP (Vasoactive Intestinal Peptide); experiment: SPR (ProteOn XPR36), antibody amine-coupled, peptide analyte, 1:1 Langmuir fit; SPR, direct binding of VIP to the antibody; weak, KD 3.1E-07 M

Row | Binder | Kd [1] [nM] | koff [1] [s⁻¹] | kon [1] [M⁻¹ s⁻¹] | Kd [2] [nM] | koff [2] [s⁻¹] | kon [2] [M⁻¹ s⁻¹] | Kd [3] [nM] | koff [3] [s⁻¹] | kon [3] [M⁻¹ s⁻¹] | IC50 [4] [nM] | Inhibition of 1 nM PACAP38-induced human VPAC2-R mediated cAMP increase IC50 (pM) [5] [pM] | Inhibition of 5 nM PACAP38-induced human VPAC1-R mediated cAMP increase IC50 (pM) [6] [pM] | Inhibition of 0.1 nM PACAP27-induced PAC1-R mediated cAMP increase IC50 (pM) [10] [pM] | Inhibition of 0.1 nM PACAP38-induced PAC1-R mediated cAMP increase IC50 (pM) [11] [pM] | IC50 [12] [nM] | also measured
1 | B1 | ≤ 0.059 | ≤ 1e-05 | 170000 | ≤ 0.022 | ≤ 1e-05 | 450000 | 91 | 0.013 | 140000 | 0.21 | 301 | 1520 |  |  |  | binding result [7]: no binding (tested: about 70 nM); Inhibition of 1 nM PACAP27-induced PAC1-R mediated cAMP increase IC50 (pM) [8]: 321 pM; Inhibition of 0.1 nM PACAP38-induced PAC1-R mediated cAMP increase IC50 (pM) [9]: 30.7 pM
2 | B2 | ≤ 0.016 | ≤ 1e-05 | 630000 | ≤ 0.021 | ≤ 1e-05 | 480000 | 440 | 0.059 | 140000 | 0.39 | 1510 | 2100 | 204 | 246 | 12.7 | 
3 | B3 | ≤ 0.013 | ≤ 1e-05 | 790000 | ≤ 0.027 | ≤ 1e-05 | 370000 |  |  |  |  | 5220 | 2850 | 140 | 239 | 20.3 | EC50 [13]: 0.84 nM; Kd [14]: 310 nM; koff [14]: 0.00054 s⁻¹; kon [14]: 1700 M⁻¹ s⁻¹
